# Source: paper PMC11328874 (2024)
# B1: HA-tagged B55α (HA-B55α), wild type [human] / FLAG-Eya3 (human), wild type [human] (parent complex)
# chain 1: MAGAGGGNDIQWCFSQVKGAVDDDVAEADIISTVEFNHSGELLATGDKGGRVVIFQQEQENKIQSHSRGEYNVYSTFQSHEPEFDYLKSLEIEEKINKIRWLPQKNAAQFLLSTNDKTIKLWKISERDKRPEGYNLKEEDGRYRDPTTVTTLRVPVFRPMDLMVEASPRRIFANAHTYHINSISINSDYETYLSADDLRINLWHLEITDRSFNIVDIKPANMEELTEVITAAEFHPNSCNTFVYSSSKGTIRLCDMRASALCDRHSKLFEEPEDPSNRSFFSEIISSISDVKFSHSGRYMMTRDYLSVKIWDLNMENRPVETYQVHEYLRSKLCSLYENDCIFDKFECCWNGSDSVVMTGSYNNFFRMFDRNTKRDITLEASRENNKPRTVLKPRKVCASGKRKKDEISVDSLDFNKKILHTAWHPKENIIAVATTNNLYIFQDKVN
# chain 2: MEEEQDLPEQPVKKAKMQESGEQTISQVSNPDVSDQKPETSSLASNLPMSEEIMTCTDYIPRSSNDYTSQMYSAKPYAHILSVPVSETAYPGQTQYQTLQQTQPYAVYPQATQTYGLPPFGALWPGMKPESGLIQTPSPSQHSVLTCTTGLTTSQPSPAHYSYPIQASSTNASLISTSSTIANIPAAAVASISNQDYPTYTILGQNQYQACYPSSSFGVTGQTNSDAESTTLAATTYQSEKPSVMAPAPAAQRLSSGDPSTSPSLSQTTPSKDTDDQSRKNMTSKNRGKRKADATSSQDSELERVFLWDLDETIIIFHSLLTGSYAQKYGKDPTVVIGSGLTMEEMIFEVADTHLFFNDLEECDQVHVEDVASDDNGQDLSNYSFSTDGFSGSGGSGSHGSSVGVQGGVDWMRKLAFRYRKVREIYDKHKSNVGGLLSPQRKEALQRLRAEIEVLTDSWLGTALKSLLLIQSRKNCVNVLITTTQLVPALAKVLLYGLGEIFPIENIYSATKIGKESCFERIVSRFGKKVTYVVIGDGRDEEIAAKQHNMPFWRITNHGDLVSLHQALELDFL
# Variants of: B1
# Assay: FLAG co-IP followed by Western blot, band quantification; cotransfected HEK cells; three biological replicates; parent: 1; read off a plot
row,ratio to parent,Variant
1,~0.28,"chain 1 MAGAGGGNDIQWCFSQVKGAVDDDVAEADIISTVEFNHSGELLATGDKGGRVVIFQQEQENKIQSHSRGEYNVYSTFQSHEPEFDYLKSLEIEEKINKIRWLPQKNAAQFLLSTNDKTIKLWKISERDKRPEGYNLKEEDGRYRDPTTVTTLRVPVFRPMDLMVEASPRRIFANAHTAAINSISINSDYETYLSADDLRINLWHLEITDRSFNIVDIKPANMEELTEVITAAEFHPNSCNTFVYSSSKGTIRLCDMRASALCDRHSKLFEEPEDPSNRSFFSEIISSISDVKFSHSGRYMMTRDYLSVKIWDLNMENRPVETYQVHEYLRSKLCSLYENDCIFDKFECCWNGSDSVVMTGSYNNFFRMFDRNTKRDITLEASRENNKPRTVLKPRKVCASGKRKKDEISVDSLDFNKKILHTAWHPKENIIAVATTNNLYIFQDKVN [chain 1 Y178A, chain 1 H179A]"
2,~0.4,"chain 1 MAGAGGGNDIQWCFSQVKGAVDDDVAEADIISTVEFNHSGELLATGDKGGRVVIFQQEQENKIQSHSRGEYNVYSTFQSHEPEFDYLKSLEIAAAINKIRWLPQKNAAQFLLSTNDKTIKLWKISERDKRPEGYNLKEEDGRYRDPTTVTTLRVPVFRPMDLMVEASPRRIFANAHTYHINSISINSDYETYLSADDLRINLWHLEITDRSFNIVDIKPANMEELTEVITAAEFHPNSCNTFVYSSSKGTIRLCDMRASALCDRHSKLFEEPEDPSNRSFFSEIISSISDVKFSHSGRYMMTRDYLSVKIWDLNMENRPVETYQVHEYLRSKLCSLYENDCIFDKFECCWNGSDSVVMTGSYNNFFRMFDRNTKRDITLEASRENNKPRTVLKPRKVCASGKRKKDEISVDSLDFNKKILHTAWHPKENIIAVATTNNLYIFQDKVN [chain 1 E93A, chain 1 E94A, chain 1 K95A]"
3,~0.36,chain 1 MAGAGGGNDIQWCFSQVKGAVDDDVAEADIISTVEFNHSGELLATGDKGGRVVIFQQEQENKIQSHSRGEYNVYSTFQSHEPEFDYLKSLEIEEKINKIRWLPQKNAAQFLLSTNDKTIKLWKISERDKRPEGYNLKEEDGRYRDPTTVTTLRVPVFRPMDLMVEASPRRIFANAHTYHINSISINSDYETYLSADDLRINLWHLEITDRSFNIVDIKPANMEELTEVITAAEFHPNSCNTFVYSSSKGTIRLCDMRASALCDRHSKLFEEPEDPSNRSFFSEIISSISDVKFSHSGRYMMTRDYLSVKIWDLNMENRPVETYQVHEYLRSKLCSLYENDCIFDEFECCWNGSDSVVMTGSYNNFFRMFDRNTKRDITLEASRENNKPRTVLKPRKVCASGKRKKDEISVDSLDFNKKILHTAWHPKENIIAVATTNNLYIFQDKVN [chain 1 K345E]
4,~0.58,chain 1 MAGAGGGNDIQWCFSQVKGAVDDDVAEADIISTVEFNHSGELLATGDKGGRVVIFQQEQENKIQSHSRGEYNVYSTFQSHEPEFDYLKSLEIEEKINKIRWLPQKNAAQFLLSTNDKTIKLWKISERDKRPEGYNLKEEDGRYRDPTTVTTLRVPVFRPMDLMVEASPRRIFANAHTYHINSISINSDYETYLSADKLRINLWHLEITDRSFNIVDIKPANMEELTEVITAAEFHPNSCNTFVYSSSKGTIRLCDMRASALCDRHSKLFEEPEDPSNRSFFSEIISSISDVKFSHSGRYMMTRDYLSVKIWDLNMENRPVETYQVHEYLRSKLCSLYENDCIFDKFECCWNGSDSVVMTGSYNNFFRMFDRNTKRDITLEASRENNKPRTVLKPRKVCASGKRKKDEISVDSLDFNKKILHTAWHPKENIIAVATTNNLYIFQDKVN [chain 1 D197K]
5,~1.2,chain 1 MAGAGGGNDIQWCFSQVKGAVDDDVARADIISTVEFNHSGELLATGDKGGRVVIFQQEQENKIQSHSRGEYNVYSTFQSHEPEFDYLKSLEIEEKINKIRWLPQKNAAQFLLSTNDKTIKLWKISERDKRPEGYNLKEEDGRYRDPTTVTTLRVPVFRPMDLMVEASPRRIFANAHTYHINSISINSDYETYLSADDLRINLWHLEITDRSFNIVDIKPANMEELTEVITAAEFHPNSCNTFVYSSSKGTIRLCDMRASALCDRHSKLFEEPEDPSNRSFFSEIISSISDVKFSHSGRYMMTRDYLSVKIWDLNMENRPVETYQVHEYLRSKLCSLYENDCIFDKFECCWNGSDSVVMTGSYNNFFRMFDRNTKRDITLEASRENNKPRTVLKPRKVCASGKRKKDEISVDSLDFNKKILHTAWHPKENIIAVATTNNLYIFQDKVN [chain 1 E27R]
6,~1.1,chain 1 MAGAGGGNDIQWCFSQVKGAVDDDVAEADIISTVEFNHSGELLATGDEGGRVVIFQQEQENKIQSHSRGEYNVYSTFQSHEPEFDYLKSLEIEEKINKIRWLPQKNAAQFLLSTNDKTIKLWKISERDKRPEGYNLKEEDGRYRDPTTVTTLRVPVFRPMDLMVEASPRRIFANAHTYHINSISINSDYETYLSADDLRINLWHLEITDRSFNIVDIKPANMEELTEVITAAEFHPNSCNTFVYSSSKGTIRLCDMRASALCDRHSKLFEEPEDPSNRSFFSEIISSISDVKFSHSGRYMMTRDYLSVKIWDLNMENRPVETYQVHEYLRSKLCSLYENDCIFDKFECCWNGSDSVVMTGSYNNFFRMFDRNTKRDITLEASRENNKPRTVLKPRKVCASGKRKKDEISVDSLDFNKKILHTAWHPKENIIAVATTNNLYIFQDKVN [chain 1 K48E]
